The source of these data is the supplement of paper PMC7877785.

± gives the uncertainty stated by the source.

The data set is described as follows: self-splicing fitness, log relative to wild type (ln ratio); higher = more splicing; Tetrahymena group I intron in knt gene, E. coli kanamycin selection, DiMSum; sequences stand for … in CUCUCU…GGAGGGAAAAGUUAUCAGGCAUGCACCUGGUAGCUAGUCUUUAAACCAAUAGAUUGCAUCGGUUUAAAAGGCAAGACCGUCAAAUUGCGGGAAAGGGGUCAACAGCCGUUCAGUACCAAGUCUCAGGGGAAACUUUGAGAUGGCCUUGCAAAGGGUAUGGUAAUAAGCUGACGGACAUGGUCCUAACCACGCAGCCAAGUCCUAAGUCAACAGAUCUUCUGUUGAUAUGGAUGCAGUUCACAGACUAAAUGUCGGUCGGGGAAGAUGUAUUCUUCUCAUAAGAUAUAGUCGGACCUCUCCUUAAUGGGAGCUAGCGGAUGAAGUGAUGCAACACUGGAGCCGCUGGGAACUAAUUUGUAUGCGAAAGUAUAUUGAUUAGUUUUGGAGUACUCGUGGUCG
The gist of the method:
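Colonies from six replicate transformations of E. coli BL21(DE3) were pooled and amplicon-sequenced on an Illumina HiSeq 2500. The library placed an intron with all eight P1ex-region nucleotides randomised inside the knt kanamycin-resistance gene on pET-22b(+), and cells grew overnight at 37°C or 30°C on LB agar with or without 25 μg/mL kanamycin (plus 100 μg/mL carbenicillin, 50 μM IPTG, 0.2% rhamnose). Fitness is the DiMSum error-weighted combination of wild-type-normalised replicate fold changes, kanamycin versus none.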

For the sequence GACCAGCAAUAUUACGUCUG, the “self-splicing fitness (ln)” value (30 °C) was -2.93 ± 0.23 and the “self-splicing fitness (ln)” value (37 °C) was -1.74 ± 0.21. As for UAUUAGCAAUAUUACGCGUG, the “self-splicing fitness (ln)” value is -0.538 ± 0.055 (30 °C) and -0.463 ± 0.065 (37 °C). Taken in the same sequence, the figures for CAGCAGCAAUAUUACGACAG were -0.416 ± 0.073 and 0.533 ± 0.1.

For the sequence AGGCAGCAAUAUUACGUUAA, the “self-splicing fitness (ln)” value was -2.6 ± 0.15 (30 °C) and -1.88 ± 0.13 (37 °C).

On to UGCAAGCAAUAUUACGCUCG, for which the “self-splicing fitness (ln)” value is, setting by setting: (30 °C) -3.78 ± 0.27; (37 °C) -1.83 ± 0.2. Taken in the same sequence, the figures for ACGCAGCAAUAUUACGGCGU were -3.68 ± 0.16 and -2.23 ± 0.14. Consider CUAAAGCAAUAUUACGAAAG, for which the “self-splicing fitness (ln)” value is, setting by setting: (30 °C) 0.0922 ± 0.092; (37 °C) 0.21 ± 0.12.

For UGGUAGCAAUAUUACGGCGC, the “self-splicing fitness (ln)” value is, setting by setting: (30 °C) -1.57 ± 0.37; (37 °C) -0.642 ± 0.3. UCGAAGCAAUAUUACGCCCU: the “self-splicing fitness (ln)” value was -2.45 ± 0.2 (30 °C) and -1.7 ± 0.13 (37 °C).

UUUCAGCAAUAUUACGCACG: the “self-splicing fitness (ln)” value was -1.05 ± 0.12 (30 °C) and -0.0521 ± 0.13 (37 °C). For GAAGAGCAAUAUUACGAAGA, the “self-splicing fitness (ln)” value by setting is: (30 °C) -2.62 ± 0.26; (37 °C) -2.48 ± 0.24.

As to UUAAAGCAAUAUUACGUGAU, the “self-splicing fitness (ln)” value reads like this: (30 °C) -3.01 ± 0.15; (37 °C) -1.15 ± 0.14.

Regarding AGAGAGCAAUAUUACGGCCC, the “self-splicing fitness (ln)” value by setting is: (30 °C) -1.82 ± 0.28; (37 °C) -1.71 ± 0.48. For AGUUAGCAAUAUUACGACAG the same measures were -0.556 ± 0.098 and -0.495 ± 0.12. As for AACCAGCAAUAUUACGGGGA, the “self-splicing fitness (ln)” value (30 °C) was -2.46 ± 0.097 and the “self-splicing fitness (ln)” value (37 °C) is -1.09 ± 0.089. As for UUACAGCAAUAUUACGGGAG, the “self-splicing fitness (ln)” value (30 °C) was -1.23 ± 0.071 and the “self-splicing fitness (ln)” value (37 °C) is -0.858 ± 0.077. Regarding UAGGAGCAAUAUUACGCACU, the “self-splicing fitness (ln)” value (37 °C) was -0.383 ± 0.28. Take AAUCAGCAAUAUUACGUCUU: the “self-splicing fitness (ln)” value (30 °C) is 0.123 ± 0.06 and the “self-splicing fitness (ln)” value (37 °C) came to 0.106 ± 0.079. For AUAAAGCAAUAUUACGGAUU the same measures were -1.15 ± 0.077 and 0.0214 ± 0.091. In the case of CGAGAGCAAUAUUACGCAGG, the “self-splicing fitness (ln)” value (37 °C) is -1.63 ± 0.17. For GUCGAGCAAUAUUACGCUUC, the “self-splicing fitness (ln)” value is, setting by setting: (30 °C) -5.12 ± 0.38; (37 °C) -4.17 ± 0.33.

Consider GCCAAGCAAUAUUACGCAAU, for which the “self-splicing fitness (ln)” value runs as follows: (30 °C) -1.35 ± 0.075; (37 °C) -0.812 ± 0.082. Taken in the same sequence, the figures for CGACAGCAAUAUUACGAAUC were -4.11 ± 0.46 and -2.71 ± 0.34. For GCUAAGCAAUAUUACGAUGU the same measures were -1.19 ± 0.072 and -0.496 ± 0.087. Taken in the same sequence, the figures for CACGAGCAAUAUUACGCCAC were -2.97 ± 0.38 and -1.02 ± 0.34. For the sequence CCAUAGCAAUAUUACGCAAC, the “self-splicing fitness (ln)” value (30 °C) is -2.54 ± 0.28.

In the case of AUGUAGCAAUAUUACGCCUA, the “self-splicing fitness (ln)” value (30 °C) is -0.493 ± 0.17 and the “self-splicing fitness (ln)” value (37 °C) was 0.198 ± 0.23. With CAGCAGCAAUAUUACGUUUA, the “self-splicing fitness (ln)” value is, setting by setting: (30 °C) -2.11 ± 0.12; (37 °C) -2.02 ± 0.12. For CGGGAGCAAUAUUACGCGAC the same measures were -3.85 ± 0.29 and -1.59 ± 0.36. On to GGAUAGCAAUAUUACGUAAU, for which the “self-splicing fitness (ln)” value reads like this: (30 °C) -1.99 ± 0.13; (37 °C) -0.617 ± 0.14.

Regarding CUAAAGCAAUAUUACGUGGG, the “self-splicing fitness (ln)” value reads like this: (30 °C) -2.9 ± 0.11; (37 °C) -1.09 ± 0.092. As for CCGCAGCAAUAUUACGUUAC, the “self-splicing fitness (ln)” value (30 °C) is -3.36 ± 0.14 and the “self-splicing fitness (ln)” value (37 °C) was -2.29 ± 0.14. For GGAGAGCAAUAUUACGCAAA, the “self-splicing fitness (ln)” value (30 °C) is -3.82 ± 0.43. With CUCCAGCAAUAUUACGGGCA, the “self-splicing fitness (ln)” value (37 °C) is -2.52 ± 0.27. For GGUAAGCAAUAUUACGUUGU, the “self-splicing fitness (ln)” value runs as follows: (30 °C) -3.1 ± 0.26; (37 °C) -1.61 ± 0.36.

As to AGACAGCAAUAUUACGCAUC, the “self-splicing fitness (ln)” value runs as follows: (30 °C) -2.73 ± 0.11; (37 °C) -2.18 ± 0.16.

Consider CACGAGCAAUAUUACGAUAA, for which the “self-splicing fitness (ln)” value reads like this: (30 °C) -3.63 ± 0.32; (37 °C) -2.32 ± 0.28. Taken in the same sequence, the figures for UGAGAGCAAUAUUACGCGCG were -2.15 ± 0.2 and -1.23 ± 0.24. For ACGUAGCAAUAUUACGAGUC the same measures were -3.3 ± 0.4 and -3.2 ± 0.35.

On to ACUGAGCAAUAUUACGCGCC, for which the “self-splicing fitness (ln)” value (30 °C) was -2.73 ± 0.33. For AACGAGCAAUAUUACGUAUU, the “self-splicing fitness (ln)” value is -3.1 ± 0.16 (30 °C) and -1.85 ± 0.14 (37 °C). For CUGAAGCAAUAUUACGCUUA the same measures were -3.82 ± 0.3 and -2.13 ± 0.23. Taken in the same sequence, the figures for UCAUAGCAAUAUUACGGGGA were -1.54 ± 0.1 and -0.546 ± 0.12. For CCCAAGCAAUAUUACGAAGC the same measures were -3.21 ± 0.2 and -2.7 ± 0.24. On to ACCUAGCAAUAUUACGCCGG, for which the “self-splicing fitness (ln)” value reads like this: (30 °C) -0.962 ± 0.13; (37 °C) -0.598 ± 0.17. For GAUCAGCAAUAUUACGCUAC the same measures were -3.38 ± 0.48 and -1.62 ± 0.29. Taken in the same sequence, the figures for UUGAAGCAAUAUUACGCGCG were 0.0526 ± 0.092 and 0.136 ± 0.12. For the sequence CAGUAGCAAUAUUACGGAUA, the “self-splicing fitness (ln)” value runs as follows: (30 °C) -1.58 ± 0.32; (37 °C) -2.79 ± 0.38. CGCUAGCAAUAUUACGUCUA: the “self-splicing fitness (ln)” value (30 °C) was -2.47 ± 0.22 and the “self-splicing fitness (ln)” value (37 °C) is -1.59 ± 0.34.

Regarding AUGGAGCAAUAUUACGGCAC, the “self-splicing fitness (ln)” value is -1.14 ± 0.37 (30 °C) and -0.0162 ± 0.42 (37 °C). On to CCUGAGCAAUAUUACGUUGU, for which the “self-splicing fitness (ln)” value (30 °C) is -3.57 ± 0.2 and the “self-splicing fitness (ln)” value (37 °C) was -2.73 ± 0.23. For CACUAGCAAUAUUACGCUGC the same measures were -3.71 ± 0.32 and -2.76 ± 0.35. Taken in the same sequence, the figures for ACGUAGCAAUAUUACGCCAA were -2.3 ± 0.38 and -1.5 ± 0.37. For CUCUAGCAAUAUUACGUCGU the same measures were -3.66 ± 0.26 and -4.15 ± 0.36. With GGACAGCAAUAUUACGCUAA, the “self-splicing fitness (ln)” value is, setting by setting: (30 °C) -0.66 ± 0.1; (37 °C) -0.339 ± 0.12.

Consider UCUGAGCAAUAUUACGUACU, for which the “self-splicing fitness (ln)” value was -2.66 ± 0.34 (30 °C) and -2.72 ± 0.48 (37 °C).

With CGCGAGCAAUAUUACGCAGA, the “self-splicing fitness (ln)” value runs as follows: (30 °C) -1.75 ± 0.22; (37 °C) -1.77 ± 0.18. As for UAUAAGCAAUAUUACGCAAC, the “self-splicing fitness (ln)” value (30 °C) was -3.03 ± 0.4. Take CGUCAGCAAUAUUACGCGAU: the “self-splicing fitness (ln)” value runs as follows: (30 °C) -3.23 ± 0.29; (37 °C) -1.76 ± 0.42.

Consider UAGAAGCAAUAUUACGCAGA, for which the “self-splicing fitness (ln)” value by setting is: (30 °C) -3.4 ± 0.34; (37 °C) -1.79 ± 0.18. For the sequence UUGUAGCAAUAUUACGUGCU, the “self-splicing fitness (ln)” value reads like this: (30 °C) -3.17 ± 0.27; (37 °C) -1.54 ± 0.21. Taken in the same sequence, the figures for CAUGAGCAAUAUUACGUUUU were -3.66 ± 0.21 and -2.86 ± 0.24.

In the case of GGCCAGCAAUAUUACGGUGC, the “self-splicing fitness (ln)” value (30 °C) is -2.91 ± 0.12 and the “self-splicing fitness (ln)” value (37 °C) is -2.01 ± 0.11. Regarding GGGGAGCAAUAUUACGAGGG, the “self-splicing fitness (ln)” value (30 °C) was -2.13 ± 0.19. Take AACAAGCAAUAUUACGAGAC: the “self-splicing fitness (ln)” value by setting is: (30 °C) -1.88 ± 0.11; (37 °C) -2.67 ± 0.19. On to GUCGAGCAAUAUUACGAUUA, for which the “self-splicing fitness (ln)” value reads like this: (30 °C) 0.373 ± 0.19; (37 °C) -0.944 ± 0.2. For GACGAGCAAUAUUACGAACU the same measures were -1.83 ± 0.11 and -0.278 ± 0.11. Taken in the same sequence, the figures for GACGAGCAAUAUUACGGUUA were -1.65 ± 0.12 and -0.972 ± 0.1.

On to AUGCAGCAAUAUUACGGCUU, for which the “self-splicing fitness (ln)” value runs as follows: (30 °C) -0.164 ± 0.072; (37 °C) 0.254 ± 0.085.

On to AUUAAGCAAUAUUACGUGUC, for which the “self-splicing fitness (ln)” value was -3.58 ± 0.21 (30 °C) and -1.02 ± 0.16 (37 °C).

Regarding GGCGAGCAAUAUUACGAAAU, the “self-splicing fitness (ln)” value runs as follows: (30 °C) -2.66 ± 0.25; (37 °C) -0.868 ± 0.19. Taken in the same sequence, the figures for AAAAAGCAAUAUUACGCCAU were -2.87 ± 0.22 and -1.71 ± 0.24. For AGUGAGCAAUAUUACGUAAA the same measures were -3.58 ± 0.22 and -1.3 ± 0.18. Taken in the same sequence, the figures for ACUAAGCAAUAUUACGUGCC were -1.22 ± 0.13 and -0.754 ± 0.14.

With CAUAAGCAAUAUUACGGAUC, the “self-splicing fitness (ln)” value (37 °C) is -1.38 ± 0.23.

In the case of UCGGAGCAAUAUUACGGUCG, the “self-splicing fitness (ln)” value was -2.01 ± 0.15 (30 °C) and -0.73 ± 0.25 (37 °C). In the case of GGUGAGCAAUAUUACGUCUC, the “self-splicing fitness (ln)” value (30 °C) was -1.28 ± 0.19 and the “self-splicing fitness (ln)” value (37 °C) is -1.61 ± 0.22. Taken in the same sequence, the figures for AGUCAGCAAUAUUACGAGGU were -3.4 ± 0.26 and -2.62 ± 0.24.
